Our source for the activity values is patent US20140045176.

Holding throughout (assay): cell_activity
Series [1] concerns Z891 L (CCR5 ZFN) (Artificial Sequence). To be noted: as ZFN pair; T7E1, sorted RFP+GFP+ HEK293; unsorted 0.8%.
Series [2] deals with Thumpd3 ZFN R (Artificial Sequence). To be noted: as ZFN pair; T7E1, sorted RFP+GFP+ mouse iPS-derived fibroblasts; unsorted 0.5%.
Series [3] relates to Thumpd3 ZFN L (Artificial Sequence). To be noted: as ZFN pair; T7E1, sorted RFP+GFP+ mouse iPS-derived fibroblasts; unsorted 0.5%.
Series [4] deals with Z891 R (CCR5 ZFN) (Artificial Sequence). To be noted: as ZFN pair; T7E1, sorted RFP+GFP+ HEK293; unsorted 0.8%.
Series [5] concerns CMAH-ZFN L (Artificial Sequence). To be noted: as ZFN pair; T7E1, hygromycin-selected porcine ear cells; untreated 3.1%.
For series [6], the system named is CCR5 TALEN R (Artificial Sequence). To be noted: as TALEN pair; T7E1, sorted RFP+GFP+ HEK293; unsorted 0.5%; 30 C culture.
Series [7] deals with ZFN-224 L (CCR5) (Artificial Sequence). To be noted: as ZFN pair; T7E1, sorted RFP+GFP+ HEK293; unsorted 12%.
Series [8] deals with ZFN-224 R (CCR5) (Artificial Sequence). To be noted: as ZFN pair; T7E1, sorted RFP+GFP+ HEK293; unsorted 12%.
The test system of series [9] is CMAH-ZFN R (Artificial Sequence). To be noted: as ZFN pair; T7E1, hygromycin-selected porcine ear cells; untreated 3.1%.
Series [10] relates to CCR5 TALEN L (Artificial Sequence). To be noted: as TALEN pair; T7E1, sorted RFP+GFP+ HEK293; unsorted 0.5%; 30 C culture.

For the sequence “ATAGATGATGGG (double strand) [Z891_L half-site]”, the activity in series [1] was 8.7 % mutation.

“GGAGACCGGAAG (double strand) [Thumpd3_R half-site]” came in with an activity in series [2] of 46 % mutation.

“CGAGCACGCCGC (double strand) [Thumpd3_L half-site]”: the activity in series [3] stood at 46 % mutation.

“GTCGGGGAGAAG (double strand) [Z891_R half-site]” had an activity in series [4] of 8.7 % mutation.

In [5], “AAGCAGGACCGA (double strand) [CMAH-ZFN_L half-site]” came in with an activity of 12.1 % mutation.

Take “TAGTTTCTGAACTTCTCCCC (double strand) [TALEN_R half-site]”: the activity in series [6] came to 4.3 % mutation.

Sequence “GATGAGGATGAC (double strand) [ZFN-224_L half-site]” showed an activity in [7] of 69 % mutation.

As to “AAACTGCAAAAG (double strand) [ZFN-224_R half-site]”, the activity in series [8] came to 69 % mutation.

The sequence “CGAGGATGGTGG (double strand) [CMAH-ZFN_R half-site]” came in with an activity in [9] of 12.1 % mutation.

“TGCATCAACCCCATCATC (double strand) [TALEN_L half-site]”: the activity in series [10] was 4.3 % mutation.
